Experimental data as given in patent publication US20240158455A1, “MULTIPLE SCLEROSIS ASSOCIATED AUTOANTIGENS, AND USE THEREOF IN THERAPY AND DIAGNOSIS” (NEOGAP Therapeutics AB, priority 2017, published 2024).

B1: FABP7 isoform 2. Full length: recombinant full-length human FABP7 isoform 2 (SEQ ID NO: 1) produced in E. coli; in b59 "FABP7" refers to PrEST data (protein, listed as Homo sapiens)
chain: MVEAFCATWKLTNSQNFDEYMKALGVGFATRQVGNVTKPTVIISQEGDKVVIRTLSTFKNTEISFQLGEEFDETTADDRNCKSVVSLDGDKLVHIQKWDGKETNFVREIKDGKMVMVSNDNSPFFLVFFSSPHTSHLLPSSSLLLPFFLLPSFFNNTSLARFFNYM
B2: PROK2: recombinant full-length PROK2 (SEQ ID NO: 2) produced in E. coli (protein, listed as Homo sapiens)
chain: MRSLCCAPLLLLLLLPPLLLTPRAGDAAVITGACDKDSQCGGGMCCAVSIWVKSIRICTPMGKLGDSCHPLTRKNNFGNGRQERRKRKRSKRKKEVPFFGRRMHHTCPCLPGLACLRTSFNRFICLAQK
B3: RTN3: recombinant full-length RTN3 (SEQ ID NO: 3) produced in E. coli (protein, listed as Homo sapiens)
chain: MAEPSAATQSHSISSSSFGAEPSAPGGGGSPGACPALGTKSCSSSCADSFVSSSSSQPVSLFSTSQEGLSSLCSDEPSSEIMTSSFLSSSEIHNTGLTILHGEKSHVLGSQPILAKEGKDHLDLLDMKKMEKPQGTSNNVSDSSVSLAAGVHCDRPSIPASFPEHPAFLSKKIGQVEEQIDKETKNPNGVSSREAKTALDADDRFTLLTAQKPPTEYSKVEGIYTYSLSPSKVSGDDVIEKDSPESPFEVIIDKAAFDKEFKDSYKESTDDFGSWSVHTDKESSEDISETNDKLFPLRNKEAGRYPMSALLSRQFSHTNAALEEVSRCVNDMHNFTNEILTWDLVPQVKQQTDKSSDCITKTTGLDMSEYNSEIPVVNLKTSTHQKTPVCSIDGSTPITKSTGDWAEASLQQENAITGKPVPDSLNSTKEFSIKGVQGNMQKQDDTLAELPGSPPEKCDSLGSGVATVKVVLPDDHLKDEMDWQSSALGEITEADSSGESDDTVIEDITADTSFENNKIQAEKPVSIPSAVVKTGEREIKEIPSCEREEKTSKNFEELVSDSELHQDQPDILGRSPASEAACSKVPDTNVSLEDVSEVAPEKPITTENPKLPSTVSPNVFNETEFSLNVTTSAYLESLHGKNVKHIDDSSPEDLIAAFTETRDKGIVDSERNAFKAISEKMTDFKTTPPVEVLHENESGGSEIKDIGSKYSEQSKETNGSEPLGVFPTQGTPVASLDLEQEQLTIKALKELGERQVEKSTSAQRDAELPSEEVLKQTFTFAPESWPQRSYDILERNVKNGSDLGISQKPITIRETTRVDAVSSLSKTELVKKHVLARLLTDFSVHDLIFWRDVKKTGFVFGTTLIMLLSLAAFSVISVVSYLILALLSVTISFRIYKSVIQAVQKSEEGHPFKAYLDVDITLSSEAFHNYMNAAMVHINRALKLIIRLFLVEDLVDSLKLAVFMWLMTYVGAVFNGITLLILAELLIFSVPIVYEKYKTQIDHYVGIARDQTKSIVEKIQAKLPGIAKKKAE
B4: SNAP91: recombinant full-length SNAP91 (SEQ ID NO: 4) produced in E. coli (protein, listed as Homo sapiens)
chain: MSGQTLTDRIAAAQYSVTGSAVARAVCKATTHEVMGPKKKHLDYLIQATNETNVNIPQMADTLFERATNSSWVVVFKALVTTHHLMVHGNERFIQYLASRNTLFNLSNFLDKSGSHGYDMSTFIRRYSRYLNEKAFSYRQMAFDFARVKKGADGVMRTMAPEKLLKSMPILQGQIDALLEFDVHPNELTNGVINAAFMLLFKDLIKLFACYNDGVINLLEKFFEMKKGQCKDALEIYKRFLTRMTRVSEFLKVAEQVGIDKGDIPDLTQAPSSLMETLEQHLNTLEGKKPGNNEGSGAPSPLSKSSPATTVTSPNSTPAKTIDTSPPVDLFATASAAVPVSTSKPSSDLLDLQPDFSSGGAAAAAAPAPPPPAGGATAWGDLLGEDSLAALSSVPSEAQISDPFAPEPTPPTTTAEIATASASASTTTTVTAVTAEVDLFGDAFAASPGEAPAASEGAAAPATPTPVAAALDACSGNDPFAPSEGSAEAAPELDLFAMKPPETSVPVVTPTASTAPPVPATAPSPAPAVAAAAAATTAATAAATTTTTTSAATATTAPPALDIFGDLFESTPEVAAAPKPDAAPSIDLFSTDAFSSPPQGASPVPESSLTADLLSVDAFAAPSPATTASPAKVDSSGVIDLFGDAFGSSASEPQPASQAASSSSASADLLAGFGGSFMAPSPSPVTPAQNNLLQPNFEAAFGTTPSTSSSSSFDPSVFDGLGDLLMPTMAPAGQPAPVSMVPPSPAMAASKALGSDLDSSLASLVGNLGISGTTTKKGDLQWNAGEKKLTGGANWQPKVAPATWSAGVPPSAPLQGAVPPTSSVPPVAGAPSVGQPGAGFGMPPAGTGMPMMPQQPVMFAQPMMRPPFGAAAVPGTQLSPSPTPASQSPKKPPAKDPLADLNIKDFL

Each molecule was assayed against HLA DRB5 01:01 (assay: competitive HLA binding assay (legend: - No binding)).

Molecule	binding result
LGEEFDETTADDRNC (also called Pool 3 FABP7) [FABP7 peptide #14 (Aa 67-81 of SEQ ID NO: 1)]	no binding
GNGRQERRKRKRSKR (also called Pool 2 PROK2) [PROK2 peptide #11 (Aa 78-92 of SEQ ID NO: 2)]	no binding
EISFQLGEEFDETTA (also called Pool 3 FABP7) [FABP7 peptide #13 (Aa 62-76 of SEQ ID NO: 1)]	no binding
QVGNVTKPTVIISQE (also called Pool 2 FABP7) [FABP7 peptide #7 (Aa 32-46 of SEQ ID NO: 1)]	no binding
ACDKDSQCGGGMCCA (also called Pool 1 PROK2) [PROK2 peptide #2 (Aa 33-47 of SEQ ID NO: 2)]	no binding
IRTLSTFKNTEISFQ (also called Pool 2 FABP7) [FABP7 peptide #11 (Aa 52-66 of SEQ ID NO: 1)]	no binding
TKPTVIISQEGDKVV (also called Pool 2 FABP7) [FABP7 peptide #8 (Aa 37-51 of SEQ ID NO: 1)]	no binding
HTCPCLPGLACLRTS (also called Pool 3 PROK2) [PROK2 peptide #19 (Aa 105-119 of SEQ ID NO: 2)]	no binding
SQCGGGMCCAVSIWV (also called Pool 1 PROK2) [PROK2 peptide #3 (Aa 38-52 of SEQ ID NO: 2)]	no binding
TFKNTEISFQLGEEF (also called Pool 2 FABP7) [FABP7 peptide #12 (Aa 57-71 of SEQ ID NO: 1)]	no binding
GRRMHHTCPCLPGLA (also called Pool 3 PROK2) [PROK2 peptide #18 (Aa 100-114 of SEQ ID NO: 2)]	no binding
ERRKRKRSKRKKEVP (also called Pool 2 PROK2) [PROK2 peptide #12 (Aa 83-97 of SEQ ID NO: 2)]	no binding
KRSKRKKEVPFFGRR (also called Pool 2 PROK2) [PROK2 peptide #13 (Aa 88-102 of SEQ ID NO: 2)]	no binding
CTPMGKLGDSCHPLT (also called Pool 1 PROK2) [PROK2 peptide #7 (Aa 58-72 of SEQ ID NO: 2)]	no binding
KLGDSCHPLTRKNNF (also called Pool 2 PROK2) [PROK2 peptide #8 (Aa 63-77 of SEQ ID NO: 2)]	no binding
IISQEGDKVVIRTLS (also called Pool 2 FABP7) [FABP7 peptide #9 (Aa 42-56 of SEQ ID NO: 1)]	no binding

What follows are molecules tested on T-cells in PBMCs from MS patients and healthy controls (assay: FluoroSpot with full-length recombinant antigens (52 patients, 24 controls), with ROC analysis).
Format: cell-based, human
Procedure: FIGS. 8A-8D. IFNγ/IL-22/IL-17 Fluorospot assay comparing T-cell activation in multiple sclerosis (MS)-patients and healthy controls when stimulated with full-length recombinant antigens (FABP7, PROK2, RTN3, SNAP91). Fifty-two Multiple Sclerosis patients and 24 healthy controls were tested for T-cell activation towards recombinant full-length versions of the autoantigens in a FluoroSpot assay. FIG. 8A: FABP7 isoform 2 (SEQ ID NO:1). FIG. 8B: PROK2 (SEQ ID NO:2). FIG. 8C: RTN3 SEQ ID NO:3. FIG. 8D: SNAP91 SEQ ID NO: 4. P-values calculated using Mann-Whitney test. Staples denote mean and C195%.
FIGS. 9A-9E. ROC-curves for the full-length antigens, Sensitivity and specificity when used as a diagnostic marker. Individually, the four antigens perform similarly as diagnostic markers for disease, all reaching a sensitivity of ˜50% with a specificity of 95%. FIG. 9A: FABP7 isoform 2. FIG. 9B: PROK2. FIG. 9C: RTN3. FIG. 9D: SNAP91. FIG. 9E: Using a combination of all four antigens as a diagnostic test achieves higher sensitivity and specificity. Specifically, utilizing the ratio of IL-17 divided by the square root of IFNγ response towards the mean response to the four antigens achieves a sensitivity of 70% with a specificity of >95%.
The full-length proteins can also be used in a similar way, see FIG. 9A-D. Utilizing all four full-length antigens, using each individual's average response to the four, increases the sensitivity and specificity further (FIG. 9E). Combining different readouts, such as analyzing the ratio between IL-17 and IFNγ, can increase the sensitivity of the test further (FIG. 9E, Table 2).
Recombinant full-length versions of the antigens FABP7 (SEQ ID NO: 1), PROK2 (SEQ ID NO: 2), RTN3 (SEQ ID NO: 3), SNAP91 (SEQ ID NO: 4) were produced in E. coli in house according to standard recombinant protein production protocols and purified via his-tag purification. 52 patients and 24 controls were tested for reactivity towards the antigens in an IFNγ/IL17/IL22 FluoroSpot assay as previously described.
A second, larger, cohort was collected in order to test the full length antigens. In this cohort, 52 patients and 24 healthy controls were included. The inclusion/exclusion criteria (table 5) as well as the sampling and PBMCs isolation were the same.
The antigens (FABP7, PROK2, RTN3 and SNAP91) picked out from the screening of PrESTs described in Example 1 and 2 were selected for further testing on the full-length versions of the protein. The full-length antigens were produced by transforming plasmids encoding the antigen and a […] into Escherichia coli. After growth, the bacteria were lysed and the protein purified from the supernatant of the bacterial lysis via 6× histidine-tag purification on an immobilized metal affinity chromatography-column. The antigens were subsequently coupled to beads and endotoxin-washed as previously described.
The FluoroSpot assay was performed under sterile conditions in a cell culture hood. The cells were thawed in a water bath at 37° C. and washed with cRPMI (RPMI 1640 medium, Sigma Aldrich, containing 10% fetal calf serum, 1% 200 mM L-Glutamine, 1% 10,000 U/ml Penicillin-10 mg/ml Streptomycin). The cells were counted manually using a light-microscope (Nikon TMS-F, Nikon, Japan) and subsequently diluted in cRPMI to a concentration of 2.5×10^6 cells/ml. The FluoroSpot plate (Human IFNγ/IL-22/IL-17A FluoroSpot kit, pre-coated, Mabtech, Sweden) was washed with PBS and then blocked with cRPMI for 30 min at room temperature. The blocking cRPMI was then discarded and 100 μl fresh cRPMI was added to each well of the FluoroSpot plate. Antigen (3×10^6 beads) was added to each well in duplicates according to a specific layout. In accordance to the manufacturer's protocol, anti-CD3 was used as a positive control. Both uncoupled beads and media without stimuli was used as negative controls. PBMCs (250,000 cells) in 100 μl cRPMI were added to each well (125,000 cells for the anti-CD3). […]

Molecule	reactivity of MS patients PBMCs versus controls, IFNγ	reactivity of MS patients PBMCs versus controls, IL17 and IL22
B1	significantly higher reactivity	significantly higher reactivity
B2	significantly higher reactivity	significantly higher reactivity
B3	significantly higher reactivity	significantly higher reactivity
B4	apart from IFNγ for SNAP91	significantly higher reactivity
